From patent publication US20220127372A1 come the findings set out here.

The experiment deals with mouse GPC3 protein (mouse) (UniProt Q8CFZ4). As to the kind of experiment: cell-based or functional assay.
UniProt Q8CFZ4, sequence (Q8CFZ4 25-579 limits assumed): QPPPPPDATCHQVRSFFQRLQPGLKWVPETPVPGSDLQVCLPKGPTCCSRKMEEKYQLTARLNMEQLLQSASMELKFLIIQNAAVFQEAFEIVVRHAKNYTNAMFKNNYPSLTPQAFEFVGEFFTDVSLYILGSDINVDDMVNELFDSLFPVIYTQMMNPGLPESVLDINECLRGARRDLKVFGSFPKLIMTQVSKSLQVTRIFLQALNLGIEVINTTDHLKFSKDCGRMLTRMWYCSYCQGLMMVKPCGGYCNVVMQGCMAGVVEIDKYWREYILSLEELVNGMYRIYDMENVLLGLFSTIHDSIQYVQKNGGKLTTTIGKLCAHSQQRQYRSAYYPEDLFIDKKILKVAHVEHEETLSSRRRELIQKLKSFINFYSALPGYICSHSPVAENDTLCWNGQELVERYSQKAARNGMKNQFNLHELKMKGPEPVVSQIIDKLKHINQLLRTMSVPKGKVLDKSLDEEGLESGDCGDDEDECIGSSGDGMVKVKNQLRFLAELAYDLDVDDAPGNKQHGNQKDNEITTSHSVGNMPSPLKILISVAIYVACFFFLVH

B1: GPC3-SL-mCD3ε (protein)
chain: EVQLVQSGAEVKKPGASVKVSCKASGYTFSDYEMHWVRQAPGQGLEWMGAIHPGSGDTAYNQRFKGRVTITADKSTSTAYMELSSLRSEDTAVYYCARFYSYAYWGQGTLVTVSAGGGGSGGGGSGGGGSDIVMTQTPLSLPVTPGEPASISCRSSQSLVHSNGNTYLQWYLQKPGQSPQLLIYKVSNRFSGVPDRFSGSGSGTDFTLKISRVEAEDVGVYYCSQSIYVPYTFGQGTKLEIKRAAAGGGGSGGGGSGGGGSLEDDAENIEYKVSISGTSVELTCPLDSDENLKWEKNGQELPQKHDKHLVLQDFSEVEDSGYYVCYTPASNKNTYLYLKARVCEYCVEVDLTAVAIIIIVDICITLGLLMVIYYWSKNRKAKAKPVTRGTGAGSRPRGQNKERPPPVPNPDYEPIRKGQRDLYSGLNQRAV
As for B1, the cytotoxicity to Hepa 1-6 GPC3 cells, effector target ratio 1:1, 18 h (CytoTox 96) is 70.7%.

B2: GPC3-SL-mCD3ε-F2A-mCCL21b (protein)
chain: EVQLVQSGAEVKKPGASVKVSCKASGYTFSDYEMHWVRQAPGQGLEWMGAIHPGSGDTAYNQRFKGRVTITADKSTSTAYMELSSLRSEDTAVYYCARFYSYAYWGQGTLVTVSAGGGGSGGGGSGGGGSDIVMTQTPLSLPVTPGEPASISCRSSQSLVHSNGNTYLQWYLQKPGQSPQLLIYKVSNRFSGVPDRFSGSGSGTDFTLKISRVEAEDVGVYYCSQSIYVPYTFGQGTKLEIKRAAAGGGGSGGGGSGGGGSLEDDAENIEYKVSISGTSVELTCPLDSDENLKWEKNGQELPQKHDKHLVLQDFSEVEDSGYYVCYTPASNKNTYLYLKARVCEYCVEVDLTAVAIIIIVDICITLGLLMVIYYWSKNRKAKAKPVTRGTGAGSRPRGQNKERPPPVPNPDYEPIRKGQRDLYSGLNQRAV
As for B2, the cytotoxicity to Hepa 1-6 GPC3 cells, effector target ratio 1:1, 18 h (CytoTox 96) is 73.2%.

B3: GPC3-SL-mCD3ε-F2A-mRunx3 (protein)
chain: EVQLVQSGAEVKKPGASVKVSCKASGYTFSDYEMHWVRQAPGQGLEWMGAIHPGSGDTAYNQRFKGRVTITADKSTSTAYMELSSLRSEDTAVYYCARFYSYAYWGQGTLVTVSAGGGGSGGGGSGGGGSDIVMTQTPLSLPVTPGEPASISCRSSQSLVHSNGNTYLQWYLQKPGQSPQLLIYKVSNRFSGVPDRFSGSGSGTDFTLKISRVEAEDVGVYYCSQSIYVPYTFGQGTKLEIKRAAAGGGGSGGGGSGGGGSLEDDAENIEYKVSISGTSVELTCPLDSDENLKWEKNGQELPQKHDKHLVLQDFSEVEDSGYYVCYTPASNKNTYLYLKARVCEYCVEVDLTAVAIIIIVDICITLGLLMVIYYWSKNRKAKAKPVTRGTGAGSRPRGQNKERPPPVPNPDYEPIRKGQRDLYSGLNQRAV
For the molecule B3, the cytotoxicity to Hepa 1-6 GPC3 cells, effector target ratio 1:1, 18 h (CytoTox 96) came out at 82.2%.

B4: GPC3-SL-mCD3ε-F2A-mIL7-P2A-mCCL21b (protein)
chain: EVQLVQSGAEVKKPGASVKVSCKASGYTFSDYEMHWVRQAPGQGLEWMGAIHPGSGDTAYNQRFKGRVTITADKSTSTAYMELSSLRSEDTAVYYCARFYSYAYWGQGTLVTVSAGGGGSGGGGSGGGGSDIVMTQTPLSLPVTPGEPASISCRSSQSLVHSNGNTYLQWYLQKPGQSPQLLIYKVSNRFSGVPDRFSGSGSGTDFTLKISRVEAEDVGVYYCSQSIYVPYTFGQGTKLEIKRAAAGGGGSGGGGSGGGGSLEDDAENIEYKVSISGTSVELTCPLDSDENLKWEKNGQELPQKHDKHLVLQDFSEVEDSGYYVCYTPASNKNTYLYLKARVCEYCVEVDLTAVAIIIIVDICITLGLLMVIYYWSKNRKAKAKPVTRGTGAGSRPRGQNKERPPPVPNPDYEPIRKGQRDLYSGLNQRAV
Turning to B4, the cytotoxicity to Hepa 1-6 GPC3 cells, effector target ratio 1:1, 18 h (CytoTox 96) was determined as 73.4%.

B5: GPC3-SL-mCD3ε-NFAT-mIL12 (protein)
chain: EVQLVQSGAEVKKPGASVKVSCKASGYTFSDYEMHWVRQAPGQGLEWMGAIHPGSGDTAYNQRFKGRVTITADKSTSTAYMELSSLRSEDTAVYYCARFYSYAYWGQGTLVTVSAGGGGSGGGGSGGGGSDIVMTQTPLSLPVTPGEPASISCRSSQSLVHSNGNTYLQWYLQKPGQSPQLLIYKVSNRFSGVPDRFSGSGSGTDFTLKISRVEAEDVGVYYCSQSIYVPYTFGQGTKLEIKRAAAGGGGSGGGGSGGGGSLEDDAENIEYKVSISGTSVELTCPLDSDENLKWEKNGQELPQKHDKHLVLQDFSEVEDSGYYVCYTPASNKNTYLYLKARVCEYCVEVDLTAVAIIIIVDICITLGLLMVIYYWSKNRKAKAKPVTRGTGAGSRPRGQNKERPPPVPNPDYEPIRKGQRDLYSGLNQRAV
As to B5, the cytotoxicity to Hepa 1-6 GPC3 cells, effector target ratio 1:1, 18 h (CytoTox 96) was 91.5%.
